In US20160271230A1 (UNIVERSITY HEALTH NETWORK, published 2016):
Blank lines part the entries; values can stand above or below the molecule they belong to. No end group written: not given here.

Experiments:
[1] = biological target: T1, Neogenin (full-length, 180 kDa) (chick, UniProt Q90610 1-1443); experiment: cell-based or functional assay
T1 construct: Endogenous Neogenin of chick brain membranes, retinal axons and tecta, or Neogenin transfected into HEK293 cells; in Western blots it stood denatured
T1 sequence: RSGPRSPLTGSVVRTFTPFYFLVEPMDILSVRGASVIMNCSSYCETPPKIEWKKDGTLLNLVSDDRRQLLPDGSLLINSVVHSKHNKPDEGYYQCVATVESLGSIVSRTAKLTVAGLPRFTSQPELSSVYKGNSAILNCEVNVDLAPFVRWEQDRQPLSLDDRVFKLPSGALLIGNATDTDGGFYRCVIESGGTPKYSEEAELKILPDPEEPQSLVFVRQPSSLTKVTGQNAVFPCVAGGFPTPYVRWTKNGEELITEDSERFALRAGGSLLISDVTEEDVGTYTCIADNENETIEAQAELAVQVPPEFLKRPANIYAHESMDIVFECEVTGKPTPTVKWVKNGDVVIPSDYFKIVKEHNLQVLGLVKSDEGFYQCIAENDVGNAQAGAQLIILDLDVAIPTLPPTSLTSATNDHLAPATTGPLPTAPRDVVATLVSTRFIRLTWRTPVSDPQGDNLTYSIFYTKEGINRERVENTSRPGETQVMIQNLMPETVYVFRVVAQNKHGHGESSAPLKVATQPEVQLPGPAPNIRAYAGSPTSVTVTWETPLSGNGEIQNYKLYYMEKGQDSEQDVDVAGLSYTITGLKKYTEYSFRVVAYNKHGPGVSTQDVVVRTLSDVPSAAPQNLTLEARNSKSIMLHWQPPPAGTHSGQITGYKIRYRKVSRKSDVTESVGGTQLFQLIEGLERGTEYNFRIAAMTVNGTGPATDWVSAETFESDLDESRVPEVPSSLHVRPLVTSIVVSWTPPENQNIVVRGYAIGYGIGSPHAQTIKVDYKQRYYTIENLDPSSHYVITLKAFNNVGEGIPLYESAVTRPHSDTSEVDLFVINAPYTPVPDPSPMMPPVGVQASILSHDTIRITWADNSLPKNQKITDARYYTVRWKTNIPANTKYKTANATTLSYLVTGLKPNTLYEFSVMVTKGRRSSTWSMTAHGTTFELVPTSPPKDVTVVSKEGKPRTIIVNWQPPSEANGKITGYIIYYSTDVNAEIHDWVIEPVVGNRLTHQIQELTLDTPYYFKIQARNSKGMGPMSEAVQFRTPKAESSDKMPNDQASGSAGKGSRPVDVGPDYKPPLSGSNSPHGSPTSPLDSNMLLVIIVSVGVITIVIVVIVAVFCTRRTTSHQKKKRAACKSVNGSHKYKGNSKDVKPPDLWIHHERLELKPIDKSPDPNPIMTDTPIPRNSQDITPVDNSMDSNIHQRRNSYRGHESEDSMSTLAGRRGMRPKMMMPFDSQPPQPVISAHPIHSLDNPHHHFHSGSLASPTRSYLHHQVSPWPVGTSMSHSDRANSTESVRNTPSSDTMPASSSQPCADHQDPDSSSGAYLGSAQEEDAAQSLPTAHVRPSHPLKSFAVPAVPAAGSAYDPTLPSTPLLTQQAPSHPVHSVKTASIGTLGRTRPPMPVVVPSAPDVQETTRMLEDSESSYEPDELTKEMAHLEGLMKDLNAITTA

[2] = biological target: T2, His-tagged 4Ig-domain of Neogenin (Gallus gallus, UniProt Q90610 1-383); experiment: plate binding assay, AP-tagged fragment on coated His-tagged 4Ig-domain (FIG. 17C)
T2 construct: Secreted from transfected cells, purified on Ni-NTA; also called His-4Ig; Neogenin-4Ig; not shown: 6-His tag at the N-terminus; myc and 6-His tags of the pSectag 2B vector at the C-terminus
T2 sequence: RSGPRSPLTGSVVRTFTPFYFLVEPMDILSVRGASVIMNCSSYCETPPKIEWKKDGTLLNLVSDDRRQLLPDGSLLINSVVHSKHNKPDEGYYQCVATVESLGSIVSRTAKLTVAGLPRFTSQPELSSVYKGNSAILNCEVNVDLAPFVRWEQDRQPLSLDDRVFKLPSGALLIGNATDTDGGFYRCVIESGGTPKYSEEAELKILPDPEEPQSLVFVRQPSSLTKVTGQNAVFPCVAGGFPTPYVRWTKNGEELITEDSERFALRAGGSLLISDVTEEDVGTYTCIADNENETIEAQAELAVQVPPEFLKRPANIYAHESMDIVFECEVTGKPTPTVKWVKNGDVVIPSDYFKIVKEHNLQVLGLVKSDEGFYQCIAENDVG
Procedure: (§1) Using a 96-well microtiter plate (Corning Incorporated), wells were coated with 100 μl (10 μg/mL) of Poly-L-Lysine at 4° C. overnight. Wells were then washed three times with 100 μl of PBST (+0.02% Tween). 50 μl (2.5 μg/mL) of His-tagged: Full-length Neogenin; 4 Ig Neogenin; and FNIII Neogenin were coated onto each well for 1 hour at 37° C. Following three washes of 100 μl PBST, each well was then blocked with 300 μl of 3% BSA in PBST for 1 hour at 37° C. 50 μl (1.0 μg/mL) AP-tagged: N-RGMa (28-73); N-RGMa (28-54); N-RGMa (40-62); N-RGMa (54-73); N-RGMa (54-62) in 1% BSA+PBST was then added to each well and incubated at 37° C. for 1 hour. Each well was washed thoroughly three times with 100 μl PBST followed by subsequent equilibration of each well with Alkaline Phosphatase (AP) developing buffer (100 mM NaHCO₃, 1 mM MgCl₂). The reaction was developed using AP developing buffer supplemented with, p-nitrophenyl phosphate (pNPP)(Sigma-Aldrich) and allowed to develop until color development. The reaction was stopped with the addition of 50 μl (0.1M) NaOH. The absorbance of each reaction was measured using a microplate autoreader (BIO-TEK Instruments Inc.) at […] wavelength. […]

[3] = biological target: T1, Neogenin (full-length, 180 kDa); experiment: told in a figure legend; assay not named there (peptide also used on beads in the pull-down of FIG. 2B)
[4] = biological target: T3, 6FNIII-domain of Neogenin fused to alkaline phosphatase (Gallus gallus, UniProt Q90610 429-1036); experiment: ELISA with AP fusions of Neogenin domains
T3 construct: also called 6FNIII-AP; fibronectin domain; not shown: alkaline phosphatase (AP)
T3 sequence: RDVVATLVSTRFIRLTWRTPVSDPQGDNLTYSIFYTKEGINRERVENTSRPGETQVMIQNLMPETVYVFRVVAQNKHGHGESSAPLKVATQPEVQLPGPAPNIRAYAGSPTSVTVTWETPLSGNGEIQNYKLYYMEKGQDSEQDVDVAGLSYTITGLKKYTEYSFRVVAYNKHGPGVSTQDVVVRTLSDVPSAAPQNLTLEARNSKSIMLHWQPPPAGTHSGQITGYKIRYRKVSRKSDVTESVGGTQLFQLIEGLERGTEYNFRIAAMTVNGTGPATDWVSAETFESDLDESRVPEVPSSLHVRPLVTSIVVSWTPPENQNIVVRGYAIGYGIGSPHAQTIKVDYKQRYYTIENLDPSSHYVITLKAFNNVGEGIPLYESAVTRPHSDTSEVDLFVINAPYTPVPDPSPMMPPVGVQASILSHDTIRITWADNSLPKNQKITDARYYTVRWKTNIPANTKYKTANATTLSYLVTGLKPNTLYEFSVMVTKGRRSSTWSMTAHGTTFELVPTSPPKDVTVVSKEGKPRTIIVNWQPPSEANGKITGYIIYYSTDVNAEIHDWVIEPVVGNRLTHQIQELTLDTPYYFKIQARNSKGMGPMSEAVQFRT

[5] = biological target: T4, His-tagged 6FNIII-domain of Neogenin (Gallus gallus, UniProt Q90610 429-1036); experiment: complementary plate assay, RGMa peptides fused with AP on coated Neogenin domains (FIG. 9)
T4 construct: also called His-6FNIII; His-FNIII; not shown: His tag
T4 sequence: T3 sequence
Procedure: (A) Different RGMa-AP proteins were incubated on wells coated with the 4Ig 6FNIII or BSA. […] Data were average±SEM (n=3 independent experiments), *p<0.005. (B) Quantification of a binding assay where 4Ig-AP and 6FNIII-AP proteins were assayed on wells coated with proteins from different RGMa regions. […] C-RGMa proteins and full length RGMa only bound 6FNIII. Data were average±SEM (n=3 independent experiments), *p<0.005. […] Quantification of a binding assay where N-RGMa-AP was assayed on wells coated with proteins DCC-4Ig and Neogenin-4Ig. In this experiment Neogenin-4Ig but not DCC-4Ig interacted with N-Raft-AP. Data were average±SEM (n=4 independent experiments), *p<0.005. (D) Cis-interaction between the 4Ig domain of Neogenin and N-Raft is required for localization of Neogenin in lipid rafts. HEK-293 cells were transfected with Neogenin and RGMa constructs. BMP2 (100 nM) was added to the medium 1 hour before cells were collected. Western blotting was performed following lipid raft fractionation. Flotillin was used as a marker for lipid raft fractions, whereas the transferrin receptor (TfR) was used as a marker for heavy membrane-fractions. Every experiment was repeated twice. […] In the first set of experiments, cells were only transfected with Neogenin. […]

[6] = biological target: T5, 4Ig-domain of Neogenin fused to alkaline phosphatase (Gallus gallus, UniProt Q90610 1-383); experiment: ELISA with AP fusions of Neogenin domains
T5 construct: also called 4Ig-AP; not shown: alkaline phosphatase (AP)
T5 sequence: T2 sequence

[7] = biological target: T3, 6FNIII-domain of Neogenin fused to …; experiment: binding assay, 4Ig-AP and 6FNIII-AP on wells coated with RGMa proteins (FIG. 9B)
[8] = biological target: T2, His-tagged 4Ig-domain of Neogenin; experiment: plate binding assay, AP-tagged fragments on coated His-tagged Neogenin proteins (FIG. 17C)
Procedure: as §1

- intensity correlation quotient (co-localization in growth cones, immunofluorescence) [1]: 0.32
Molecule: RGMa on the cell membrane (from UniProt Q8JG54 150-404) (ligand)

- binding result [2]: no binding (tested: 1.0 µg/mL)
B1: N-RGMa (54-62aa), AP-tagged (peptide)
chain: TPEFCTALR
modifications: also: alkaline phosphatase tag, sequence and position not given here
notes: not shown: alkaline phosphatase tag of the Psectag2B-AP plasmid

- binding result [3]: no binding
Molecule: GAEETPEFCTALRAYAHCTRRTARTCRGDLAYHSAVHGIDDLMVQHNCSK (not shown: 6-His tag at the N-terminus) [N-RGMa^50-99 control peptide (amino acid residues 50-99 of RGMa)]

- binding result [4]: no binding
B2: N-Raft peptide (amino acids 28-73 of RGMa), His-tagged (peptide)
peptide: SPCKILKCNSEFWAATSGSHHLGAEETPEFCTALRAYAHCTRRTAR
notes: also called N-RGMa^28-73; N-RGMa28-73; not shown: 6-His tag at the N-terminus

- binding result [5]: no binding
B3: N-Raft fused with alkaline phosphatase (peptide)
chain: B2 peptide
modifications: cysteine pairing not given here; also: alkaline phosphatase tag, sequence and position not given here
notes: also called N-Raft-AP; N-RGMa-AP; not shown: alkaline phosphatase tag of the Psectag2B-AP plasmid

- binding result [6]: no binding
- binding result [7]: binds
B4: N-inh peptide (amino acids 77-113 of RGMa), His-tagged (peptide)
peptide: GDLAYHSAVHGIDDLMVQHNCSKDGPTSQPRLRTLPP
notes: not shown: 6-His tag at the N-terminus; myc tag and 6-His tag at the C-terminus

- binding result [2]: no binding (tested: 1.0 µg/mL)
B5: N-RGMa (28-54aa), AP-tagged (peptide)
chain: SPCKILKCNSEFWAATSGSHHLGAEET
modifications: cysteine pairing not given here; also: alkaline phosphatase tag, sequence and position not given here
notes: as for B1

- binding result [8]: binds
B6: N-RGMa (54-73aa), AP-tagged (peptide)
chain: TPEFCTALRAYAHCTRRTAR
modifications: cysteine pairing not given here; also: alkaline phosphatase tag, sequence and position not given here
notes: also called N-RGMa (55-73aa); not shown: alkaline phosphatase tag of the Psectag2B-AP plasmid

- binding result [8]: binds
B7: N-RGMa (40-62aa), AP-tagged (peptide)
chain: WAATSGSHHLGAEETPEFCTALR
modifications: also: alkaline phosphatase tag, sequence and position not given here
notes: as for B1
